Positions count from the first letter of the chain named. Blank lines part the entries; values can stand above or below the binder they belong to.
Key:
[1] = target: natural human Fc region prepared by papain digestion of human monoclonal IgG (Chugai Pharmaceutical Co., Ltd.) (human); assay: SPR Biacore T100, Fc immobilized on CM5, Scatchard plot of equilibrium values
[2] = target: natural human Fc region prepared by papain digestion of human monoclonal IgG (Chugai Pharmaceutical Co., Ltd.) (human); assay: SPR Biacore T100, Fc immobilized on CM5, peptide as analyte
[3] = target: natural human Fc region prepared by papain digestion of human monoclonal IgG (Chugai Pharmaceutical Co., Ltd.) (human); assay: SPR, KD compared
[4] = target: human Fc region manufactured by Jackson ImmunoResearch Laboratories, Inc. (human); assay: SPR, KD compared
[5] = target: human Fc region manufactured by Jackson ImmunoResearch Laboratories, Inc. (human); assay: SPR Biacore T100, Fc immobilized on CM5, peptide as analyte
[6] = target: natural human Fc region prepared by papain digestion of human monoclonal IgG (Chugai Pharmaceutical Co., Ltd.) (human); assay: SPR Biacore T100, Fc immobilized on CM5, polypeptide as analyte

Kd [2]: 120 nM
Binder: DAAWHLGELVWATYYDPETGTWQPDWLYMTTR [pep14 peptide]

fold improvement in affinity against the FcIII-Ala peptide [3]: 420 fold
Kd [2]: 100 nM
Binder: DAAWHLGELVWATYYDPETGTWLPDWQTMAQK [pep21 peptide]

Kd [2]: 510 nM
Binder: DAAWHLGELVWATYYDPETGTWAPDWRLMQGQ [pep11 peptide]

fold higher affinity against the particular sequence (FcIII-Ala) [3]: 190 fold
Binder: DAAWHLGELVWATYYDPETGTWEPDWQRMLGQ [pep24 peptide]

fold reduction in binding affinity against p17-2 [3]: > 100 fold
Kd [6]: 200 nM
B3: p17_W48A (designed binder)
chain: GPGISAFSPGRGVYDPETGTWYDAAWHLGELVWATYYDPETGTWEPDAQRMLGQ

Kd [6]: 7.8 nM
B4: p17_R50A (designed binder)
chain: B3 chain with A48W, R50A

The next lines start with the binder.

Binder: DAAWHLGELVWAT [FcIII-Ala peptide]
Kd [1]: 42000 nM

Binder: GVVRQWSGGGGSGGGGRSSIAYGGG [2A1Gly peptide]
binding affinity as a fraction of that of the 2A1 peptide [4]: < 0.001
Kd [5]: 23000 nM

B1: p17-2 peptide (designed binder)
chain: B3 chain with A48W
fold improvement in binding affinity against the FcIII-Ala peptide [3]: 26000 fold
fold improvement in binding affinity against the pep24 peptide [3]: 138 fold
Kd [2]: 1.6 nM

B2: p17_M51A (designed binder)
chain: B3 chain with A48W, M51A
fold reduction in binding affinity against p17-2 [3]: > 100 fold
Kd [6]: 180 nM

B5: p17_D47A (designed binder)
chain: B3 chain with D47A, A48W
Kd [6]: 45 nM

B6: p17_P46A (designed binder)
chain: B3 chain with P46A, A48W
Kd [6]: 5.6 nM

From US20150377899A1
